Consider 54 molecules from PMC314469, “Protein Interaction Networks by Proteome Peptide Scanning” (PLoS Biology, 2004).

Sequences and labels used below:
T1: Myo5 SH3 (MYO5_YEAST), Q04439
T1 chain: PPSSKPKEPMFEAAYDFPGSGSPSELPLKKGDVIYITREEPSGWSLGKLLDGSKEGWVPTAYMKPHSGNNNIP

The test has as its target T1, Myo5 SH3 (MYO5_YEAST), Q04439. The experiment in a line: SPOT array.
Consider HFYEYVYPSLPFIE [YAL051W 349-362], for which the normalised SPOT signal, Boehringer light units (BLU); mean over the file's lines of this peptide came out at 152. In turn, HLDSFSPPFSPSTT [YPL230W 298-311] had a normalised SPOT signal, Boehringer light units (BLU); mean over the file's lines of this peptide of 121. GLDALNIPHKPKQL [YHR033W 57-70]: the normalised SPOT signal, Boehringer light units (BLU); mean over the file's lines of this peptide came out at 167. As for IEFDLSKPFTPFQQ [YGL173C 578-591], the figure is 134; as for GLIGMNDPPRPNVK [YGL167C 574-587], 116. As for IAKPYVLPFFPLYA [YEL031W 24-37], the figure is 247; as for HPEYLSLPFEPYSF [YLR054C 108-121], 213. As for HPHPHPHPHTPTHT [YHR217C 23-36], the figure is 238.

As for IATMYPIPAYPDLL [YJL127C 53-66], the normalised SPOT signal, Boehringer light units (BLU); mean over the file's lines of this peptide came out at 96.9.

The molecule HPYMMVYPMSPPPP [YHL024W 649-662] registered a normalised SPOT signal, Boehringer light units (BLU); mean over the file's lines of this peptide of 563. Regarding IARPLSVPGSPKVR [YFR015C 646-659], the normalised SPOT signal, Boehringer light units (BLU); mean over the file's lines of this peptide was found to be 383.

In the case of HATLYWAPVSPLKS [YLR305C 1420-1433], the normalised SPOT signal, Boehringer light units (BLU); mean over the file's lines of this peptide is 151. The same measure for HEYNLALPKFPILF [YMR088C 27-40]: 147; for IERVWNGPVEPSDE [YIL067C 73-86]: 180; for IEVPMEYPFKPPKM [YDR177W 56-69]: 384.

With HEHNYAIPYTPATF [YBR238C 43-56], the normalised SPOT signal, Boehringer light units (BLU); mean over the file's lines of this peptide amounted to 129. As for IEITHSEPAIPYRE [YNL163C 742-755], the figure is 114; as for IFFKLIHPFLPILH [YIR023W 322-335], 503. The same measure for HFLSLDPPIDPNNL [YMR075W 283-296]: 122. As for GLRWYRSPIYPYLY [YEL050C 102-115], the figure is 468; as for GWSTYIPPFNPLEI [YNL088W 836-849], 114. GPIIHPGPEPPRYD [YPR030W 1104-1117] had a normalised SPOT signal, Boehringer light units (BLU); mean over the file's lines of this peptide of 205. The same measure for GPLLLTVPELPEAD [YLR338W 178-191]: 162; for ILSAYNSPKVPADI [YGR175C 270-283]: 81.4. GPSQFAPPPPPPGV [YCR077C 189-202] came in with a normalised SPOT signal, Boehringer light units (BLU); mean over the file's lines of this peptide of 20400. The molecule HEKLYHNPSLPAQS [YKL217W 53-66] displayed a normalised SPOT signal, Boehringer light units (BLU); mean over the file's lines of this peptide of 78.1.

IEEGHLDPEAPDKL [YOR301W 105-118] returned a normalised SPOT signal, Boehringer light units (BLU); mean over the file's lines of this peptide of 84.8. In turn, IFQSLLHPELPIII [YPR169W 50-63] came in with a normalised SPOT signal, Boehringer light units (BLU); mean over the file's lines of this peptide of 240.

Take GLHDYTSPASPKQT [YOR267C 107-120]: the normalised SPOT signal, Boehringer light units (BLU); mean over the file's lines of this peptide came to 130. Turning to HLFHLTTPQDPRLL [YKL191W 249-262], the normalised SPOT signal, Boehringer light units (BLU); mean over the file's lines of this peptide was determined as 246. For the molecule HAEAFEDPSIPRIS [YGL195W 985-998], the normalised SPOT signal, Boehringer light units (BLU); mean over the file's lines of this peptide came out at 325. In turn, HAWDMRSPHRPFYS [YDR128W 140-153] came in with a normalised SPOT signal, Boehringer light units (BLU); mean over the file's lines of this peptide of 822.

IAESLGVPWEPVDL [YGR088W 547-560] returned a normalised SPOT signal, Boehringer light units (BLU); mean over the file's lines of this peptide of 143.

HFNDLQSPAQPQQS [YMR164C 264-277] displayed a normalised SPOT signal, Boehringer light units (BLU); mean over the file's lines of this peptide of 92.5.

As for HLVVWNPPILPQHE [YDR291W 495-508], the normalised SPOT signal, Boehringer light units (BLU); mean over the file's lines of this peptide amounted to 118.

As for GPEFWISPDTPLKF [YJL093C 632-645], the normalised SPOT signal, Boehringer light units (BLU); mean over the file's lines of this peptide came out at 87.4. As for GLIAHQGPQFPVMG [YKL204W 458-471], the figure is 238.

Molecule IAGMLMVPESPRFL [YMR011W 241-254] returned a normalised SPOT signal, Boehringer light units (BLU); mean over the file's lines of this peptide of 255.

GWEPFSLPKDPKVV [YML018C 282-295]: the normalised SPOT signal, Boehringer light units (BLU); mean over the file's lines of this peptide amounted to 75.9. As to GWPVYNYPMQPTTE [YER109C 286-299], the normalised SPOT signal, Boehringer light units (BLU); mean over the file's lines of this peptide is 168. Take ILIFLWIPDDPSKA [YJR152W 263-276]: the normalised SPOT signal, Boehringer light units (BLU); mean over the file's lines of this peptide was determined as 1370. As for HAVLLNPPVAPTAE [YPL012W 184-197], the figure is 228; as for ILHQLGAPSIPENL [YBL004W 2280-2293], 174.

Take IARSFTIPFLPKIP [YLR164W 20-33]: the normalised SPOT signal, Boehringer light units (BLU); mean over the file's lines of this peptide was 204. HLARYIFPPNPVFH [YBR007C 426-439] came in with a normalised SPOT signal, Boehringer light units (BLU); mean over the file's lines of this peptide of 279. The same measure for HFLAYTNPRAPGKL [YIL054W 29-42]: 112; for GLLLLFVPDSPYDP [YLR106C 2903-2916]: 21.6. As to IEPDFIEPDAPLAA [YGL198W 10-23], the normalised SPOT signal, Boehringer light units (BLU); mean over the file's lines of this peptide was 61.4. As for GLLTYKGPKVPYQK [YHR028C 497-510], the figure is 150; as for HPIHLQPPVPPVYK [YOR032C 88-101], 318. As for HLTDLSPPGTPPTM [YMR165C 272-285], the figure is 261. GLRELFLPGMPGLM [YPL249C 557-570] came in with a normalised SPOT signal, Boehringer light units (BLU); mean over the file's lines of this peptide of 160.

HPSGLNSPKLPPLP [YNL152W 370-383] gave a normalised SPOT signal, Boehringer light units (BLU); mean over the file's lines of this peptide of 457. The same measure for GWVVYPPPPKPSYN [YML035C 223-236]: 453.
